In the nanobody polyreactivity screen of Harvey et al. (2022):

Assay: yeast display, Sf9 membrane polyspecificity reagent, FACS + sequencing; frameworks hold sequencing errors
Outline: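 Polyreactivity labels are assigned by the sorting gate from which each nanobody was recovered. The gates were low and high (top ~1%), set on anti-HA fluorescence for expression and streptavidin fluorescence for reagent binding. Before sorting, galactose-induced (36–48 hours) yeast display cells were stained for 1 hour at 4 °C with 10% biotinylated, detergent-solubilized Sf9 membrane reagent.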

Sequence | polyreactivity (PSR sort gate)
QVQLVESGGGLVQAGGSLRLICAASGSIFPANVMGWYRQAPGKERELVAVISSSGGRTFYADSVKGRFTISRDNAKNTVYLQMNSLKPDDTAVYYCAATIYDYKRALKYYYWGLGTQVTVSS | high polyreactivity
QVQLVESGGGLVQAGGSLRLSCAASGRTFHYNAMGWYRQAPGKERELVAAISRDGGSTDYADSVKGRFTISRDNAKNTVYLQMNSLKPEDTAVYYCAAPIGKQEFSRDYDYWGQGTQVTVSS | low polyreactivity
QVQLVESGGGLVQAGGSLRLSCAASGSTFRSYTMGWYRQAPGKERELVATIDWSAGNTRYADSVKGRFTISRDNAKNTVYLQMNSLKPEDTAVYYCNKDAGLWVSGTLYYWGQGTQVTVSS | low polyreactivity
QVQLVESGGGLVQAGGSLRLSCAASGSTFRANAMGWYRQAPGKERELVAAIRGTGSTYYADSVKGRFTISRDNAKNTVYLQMNSLKPEDTAVYYCAARPGYLYSKYNYWGQGTQVTVSS | high polyreactivity
QVQLVESGGGLVQEGGRLRLSCAASGRIFWDNDMGWYRQAPGKERELVAAISRRGGSTSYADSVKGRFTISRDNAKNTVYLQMNSLKPEDTAVFYCNVRTRWTRVRRYDYWGQVTQVTVSS | high polyreactivity
QVQLVESGGGLVQAGGSLRLSCAASGSTFMDYAMGWYRQAPGKERELVAAISSGGSTNYADSVKGRFTISRDNAKNTVYLQMNSLKPEDTAVYYCNADYYWSRTQEFDYWGQGTQVTVSS | high polyreactivity
QVQLVESGGGLVQAGGSLRLSCAASGITFEGYAMGWYRQAPRKERELVAAITGSGSTTYYADSVKGRFTISRDNAKNTVYLQMNSLKPEDTAVYYCAADVSYKLYWGQVTQVTVSS | low polyreactivity
QVQLVESGGGLVQAGGSLRLSCAASGRIFEVYTMGWYRQAPGKERELVAAIDRSTGSTYYADSVKGRFTISRDNAKNTVYLQMNSLKPEDTAVYYCAARGTFLGTRPLGRFDYWGQGTQVTVSS | low polyreactivity
QVQLVESWGGIVQAGGSLRLSCAASGFIFSRYGMGWYRQAPGKERELVAAISRSAGSTYYADSVKGRFTISRDNAKNTVYLQMNSQKPEETAVYYCAARHGGRATVEPPIQGYGYWGQGTQVTVSS | low polyreactivity
QVQLVESGGGLVQAGGSLRLSCAASGRSFYLYAMGWYRQAPGKERELVAGITSGGRTNYADSVKGRFTISRDNAKNTVYLQMNSLKPEDTAVYYCAAGSRRYKYDYWGQGTQVTVSS | high polyreactivity
QVQLVESGGGLVQAGGSLRLSCAASGFIFDWYTMGWYRQAPGKERELVAAITIGGSTDYADSVKGRFTISRDNAKNTVYLLMNSLKPEDTAVYYCNALWYLSGTWYDYWGQGTQVTVSS | low polyreactivity
QVQLVESGGGLVQAGGSLRLSCAASGSTFRTNVMGWYRQAPGKERELVAAITKRGSITYYADSVKGRFTISRDNAKNTVYLQMNSLKPEDTAVYYCAARKVAVRGYGYWGQGTQVTVSS | high polyreactivity
QVQLVDSSGGLVQAGGSLSLSCAASGRTFGFYAMGWYIQAPGSERELVASITWRGGRKYYADSEMGSFTISRDNAKNTCYLQMISLKPEDTAVYYCAAAYHPYQGVTGHDGGYDYWGQGTQVTVSS | low polyreactivity
QDQIVESGGGLVQAGGSLRLSCASSGFTFYVYAMGWYRQAPCKERELVAAISWSGGRTYYAESVKGRFTISRDNAKNTVYLQMNSLKPEDTAVYYCAAYRYYPSYDYWGQGTQVTVSS | high polyreactivity
QVQLVESGGGLVQAGGSLRISCAASGRTLGGYTMGWYRQAPGKERELVAAITGSGSNTYYADSVKGRFTISRDNAKNTVYLQMNSLKPEDTAVYYCAAPYSYRTWYPYGYWGQGTQVTLSS | high polyreactivity
QVQLVESGGGLFQAGGSLRLICAASGNIFKSYTMGWYRQAPGKERELVAAITSGGRTNYADSVKGRFTISRDNAKNTVYLQMNSLKPEDTAVYYCNAYKVFWVSIRYKFDYWGQGTQVTVSS | high polyreactivity
QVQLVESGGALVQAGGSLRLSCAASGSTIRDYAMGWYRQAPRKERELVAVIDNSGGRTYYADSVKGRFTISRDNAKNTVYLQMNSLKPEDTAVYYCNAYAYPFRGGYWGQGTQVTVSS | high polyreactivity
QVQLVESGGGLVQAGGSLRLSCAASGFTFRGYDMGWYRQAPGKERELVAAISGGVSTNYADSVKGRFTISRDNAKNTVYLQMNSLKPEDTAVYYCAAVPVSAGYSSIFDYWGQGTQVTVSS | low polyreactivity
QVQLVESAGGLVQAGGSLRLSCAASGSNFAIYDMGWYRQAPGKEREFVADISIVGRKKYADSVKGRFTISRDNAKNTVYLQMNSLKPEDTAVYYCTDQDSRDRKFYWGYTRGHWGQGTQVTVSS | low polyreactivity
QVQLVESGGALVQAGGSLRLSCAASGRIFWDYVMGWYRQAPGKEREFVAAISLDGNITYYADSVKGRFTISRDNAKNTVYLQMNSLKPEDTAVFYCAADQYFFFRARGYDYWGQGTQVTVSS | low polyreactivity
QVQLVESGGGLVQAGGSLRLSCAASGFTFTPYAMGWYRQAPGKERELVATISWSGGSTYADSVKGRFTISRDNAKNTVYLQMNSLKPEDTAVYYCAADVYGVHAPQSDYWTKYDYWGQGTQVTVSS | low polyreactivity
QVQLVESGGGLVQAGGSLRLSCAASGIIFYDYAMGWYRQAPGKERELVAAITSNGDNTYYADSVKGRFTISRDNAKNTVYLQMNSLKPEDTAVYYCAVDGSFAADFDNYLEEYGYWGQGTQVSVSS | low polyreactivity

Sequence | polyreactivity (PSR sort gate)
QVQLVESGGGLVQAGCRLRLSCAASGRTSPRYTMGWYRQAHGKERELVASITVSDGSTYYADSVKGRFTISRDNAKNTVYLQMNSLKPEDTAVYYCARPGYWYRYISTSKLHYYWGQGTQETVSS | low polyreactivity
QVQLVESGGGVVQAGGSLRLSCAASGSIFGVYAMGWYRQAPGQERELVAAIDSGSSTDYADSVKGRFTISRDNAKNTVYLQMNSLKPEDTAGYYCYPLDLAPVDYWGQGTQVTVSS | low polyreactivity
QVQLVESGGGLVQAGGSLRLSCAASGSTFWNNAMGWYRQAPGKERELVAVINSSGGSTYYADSVKGRFTISRDNAKNTVYLQMNSLKPEDTAVYYCNADATDSYPEKDEHDSWGQGTQVTVSS | low polyreactivity
QVQLVESGGGLVQAGGSLRLSCAASGSTFGVYARGWYRQAPGKERELVAAISSSTGSTYYADSVKGRFTISRDNEKNTVYLQMNSLKPEDTAVYYCAAAGYGKVRGDYWGQGTQVTVSS | low polyreactivity
QVQLVESGGGLVQAGGSLRLTCAASGSIFGYAMGWYRQEPGKERELVAAISFSGVSTYYADSVKGRFTISRDNAKNTVYLLMNSLKPEDTAVYDCNAYSDGDEDYWGQGTQVTVSS | low polyreactivity
QVQLVESGGGLVQAGGSLRLSCAASGSTFYGYAMGWYRQAPGKERELVAAIRRIGGTTYADSVKGRFTISRDNAKNTVYLQMNSLKPVDTAVYYCAAYGFSYRYRYYYWGQGTQVTVSS | high polyreactivity
QVQLVESGGGLVQAGGSLRLSCAASGNTFYSNAMRWYRQAPGKERELVAAISTSGGSTFYADSVKGRFTISRDNAKNTVYLQMNSLKPEDTAVYYCAARSLRGHRYRYDYWGQGTQVTVSS | high polyreactivity
QVQLVESGGGLVQAGGSLRLSCAASGFIFPGNTMGWYRQAPGKERELVAAITRSGASTYYADSVKGRFTISRDNAKNTVYLQMNSLKPEDTAVYYCAERYYYGLRYPDYYYWGQGTQVTVSS | high polyreactivity
QVQLVESGGGLVQAGGSLRLSCAASGIIFYKNAMGWYRQAPGKDRELVAAISGSGGRTYYADSVTGRFTISRDNGKNTVYFQMNSLKPEDTAVYYCAARQPYRHGYESWGQGSQVTVSS | high polyreactivity
QVQLVESGGGLVQAGGSLRLSCAASGRIGTNAMGCYRQAPGKERELVAAISKRGGSTHYADSVKGRFTISRDNAKNTVYLQMNSMKPEDTAVYYCAASRAVGYDYWGQGTEVTVSS | high polyreactivity
QVQLVESGGGLVQAGGSLRLSCAASGRIFWSNAMGWYRQAPGKERELVATISSGGRTYYADSVKGRFTISRDNAKNTVYLQMNSLKPEDTAVYYCAAVTFWFWPGMDYWGQGTQVTVSS | low polyreactivity
QVQHVESGGGLVQAGGSLRLSCAASGSTFRTYGMGWYRQAPGKERELVAGITRGGSTTYADSVKGRFTISRDNAKNTVYLQMNSLKPEDTAVYYCNAGYVRVRAHNYDYWGQGTQVTVSS | high polyreactivity
QVQLVESGGGLVQAGGSLRLSCAASGSTFNSNAMGWYRQAPGKERELVAAISYSGGRTYYADSVKGRFTISRDNAKNTVYLQMNSLKPEDTAVYYCAKSPNHYIHFDYWGQGTQVTVSS | low polyreactivity
QVQLVESGGGLVQAGGSLRLSSAASGITFYFNAMRWYRQATGKVSEFVAAISFSGGGTYYADSVKGRFTISRDNAKITDYLDMNSLKPADTAVYYCNADYGRGTLRSIYDYWGQGTQVTVTS | low polyreactivity
QVQLVESGGGLVQAGGSLRLSCAASGRTFGGNAMGWYRQAPGKERELVATIRSSSSTNYADSVKGRFTISRDNAKNTVYVQMNSLKQEDTAVYYCNAARPDALNTYGYGFDYWGQGTQVTVSS | low polyreactivity
QVQLVETGGGLVQAGGSLRLSCAASGRTFAYYAMGWYRQAPGKERELVAAISSGGRTNYADSVKGLFTISRDNAKNTVYLQMNSLKPEDTAVYYCAAVRWVYPRRYYYWGQGTQVTVSS | high polyreactivity
QVQLVESGGGLVQAGGSLRLSCAASGGIFSVYAMGLYRQAPGKERELVASITVSGGSTSYADSVKGRFTISRDNAKNTVYLQMNSLKPEDTAVYYCNTDFGQAHTLSWYEDMDYWGQGTQVTVSS | low polyreactivity
QVQLVESGGGLVQAGGSLRLSCAASGFTFGYNTMGWYRQAPGNERELGAAISWRGGSTFYADSVKGRFTISRDNAKNTVYLQMNSLKPEDTAVYYCNVLRLDQRYPSLRDDWGQGTQVTVSS | high polyreactivity
QVQLVESGGGLVQEGGCLRLSCAASGSIFQGYAMGWYRQAPGKERELVAAITTDGDSTYYADSVKGRFTISRDNAKNTDYLEMNSLKPVDTAVYYCAADQDGRWEGSSEQGDSWGQGTQVTVSS | low polyreactivity
QVQLVESGGGLVQAGGSLRLSCAASGRTFVINSMGWYRQAPGKERELVAAITWGGGSTYYADSVKGRFTISRDNAKNTVYLQMNSLKPEDTAVYYCATSYSVQYGGSGYYWGQGTQVTVSS | low polyreactivity
QVQLVESGGGLVQAGGSLRLSCAASGNILIGNVMGWYRQAPGKERELVAAITSGGDTYYADSVKGRFTISRDNAKNTVYLQMNSLKPEDTAVYYCAADRPGQPKYEYWGQGTQVTVSS | low polyreactivity
